Test results: IntAct's records for PubMed 16424905

B1: AN1-type zinc finger protein 5 (Homo sapiens), O76080 (parent)
chain: MAQETNQTPGPMLCSTGCGFYGNPRTNGMCSVCYKEHLQRQQNSGRMSPMGTASGSNSPTSDSASVQRADTSLNNCEGAAGSTSEKSRNVPVAALPVTQQMTEMSISREDKITTPKTEVSEPVVTQPSPSVSQPSTSQSEEKAPELPKPKKNRCFMCRKKVGLTGFDCRCGNLFCGLHRYSDKHNCPYDYKAEAAAKIRKENPVVVAEKIQRI

Variants of: B1
Details: with ubc_human UBC

Variant	effect of a mutation on the interaction
C30A	disrupting interaction
C33A	disrupting interaction

Variants of: B1
Details: with psmd6_human PSMD6, Q15008
psmd6_human PSMD6, Q15008, sequence (Q15008 whole entry): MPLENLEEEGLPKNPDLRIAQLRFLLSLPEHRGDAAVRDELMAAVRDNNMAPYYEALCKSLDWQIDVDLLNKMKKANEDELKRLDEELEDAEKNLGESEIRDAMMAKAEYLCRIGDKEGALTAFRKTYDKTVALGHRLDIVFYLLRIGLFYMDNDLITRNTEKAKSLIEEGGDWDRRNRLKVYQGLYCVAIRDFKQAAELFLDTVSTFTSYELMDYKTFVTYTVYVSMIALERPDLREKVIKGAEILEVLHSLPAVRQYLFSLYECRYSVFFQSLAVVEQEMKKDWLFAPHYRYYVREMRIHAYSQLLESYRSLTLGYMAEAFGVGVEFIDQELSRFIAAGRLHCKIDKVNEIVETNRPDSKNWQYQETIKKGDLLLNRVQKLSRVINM

Variant	effect of a mutation on the interaction
C30A	disrupting interaction
C175A	disrupting interaction
C170A	disrupting interaction
C33A	disrupting interaction
